According to the supplement of paper PMC12042874:
± gives the uncertainty stated by the source.

Test: amyloid nucleation score (Sup35N fusion, yeast selection) (log enrichment); library NNK1; higher = more nucleation; inactive = no reads after selection
How it was run: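 In psi-negative yeast, Sup35N fusions carrying peptides of 20 random codons were induced with 100 μM copper sulfate for 24 hours. The cells then grew 7 days at 30°C on medium lacking adenine and uracil, and plasmid inserts from input and output were Illumina-sequenced, excluding sequences with under 100 input reads. Nucleation score is the DiMSum log enrichment of output over input reads, centred on the mode score of non-aggregating sequences.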

Substance	amyloid nucleation score
EQVSKMGNTCMSVDRVRWQN	-0.411 ± 0.87
SHGAGYRFTEFIHHSGGLPN	0.498 ± 0.39
WWYYNRRWLVTCKSVYGLGM	-0.34 ± 0.37
IKISYEIQAMAVLGM	inactive
GDMFVAKCYSRGDSQISLMF	0.368 ± 0.37
TGYVIGWVSWTSWWEMGLYR	-2.43 ± 2.4
CLVFWETECSA	-0.323 ± 0.29
SGFGYSYCTLHCRTFWCLRP	0.972 ± 0.3
IRSAN	0.918 ± 1.1
RYCHVLIVIAQANQSFKDVQ	7.725 ± 0.056
IMLTGLRLHVVDGEKLPMTS	1.01 ± 0.71
QGSCCD	-0.815 ± 0.86
WFTAHMCDNHYSTIPNSPRQ	1 ± 0.81
KPDSMFDFER	-0.675 ± 1.3
WTLRYRSARLVACMINTDEM	1.68 ± 0.46
LDCDSSLGRN	0.722 ± 0.39
GSTYR	-0.482 ± 0.51
ACTYYIWVLSCAGPRAGGKE	7.257 ± 0.048
WCWLCVKRR	-0.108 ± 0.56
LVLANTDSLTLWFLVTYLTC	-0.42 ± 0.62
SALLEQRLSSGLDVAISLRI	-0.368 ± 0.9
LNYTVQSDTWHLNWQP	0.875 ± 0.93
YYLIMP	0.322 ± 0.41
CFPTWYLLLDCWVQFPAHTK	2.56 ± 0.16
VVMLNFYCIRNRRVWIVNIC	3.76 ± 0.058

Substance	amyloid nucleation score
RISTCIEILYDS	-0.587 ± 0.37
CCLHSAFSNNARILFMALRS	0.861 ± 0.84
GPWGQICSDTFYLLFVWVSW	0.133 ± 0.37
TVNARVGVSIFYYWV	0.345 ± 0.93
IKIIAFFWLCSYHGWISWKS	-1.5 ± 1.1
LLASRPEG	-0.437 ± 0.35
GMNPQTHAPVILTLGVQNIR	2.2 ± 0.14
VVSWDS	-0.015 ± 0.41
TAIWTSIIDL	0.96 ± 0.42
HEYNCRG	inactive
NSSLLDISLYDNLVQGSDWP	-0.249 ± 0.57
GHGYCLSWFNGNDPRGTTTT	1.1 ± 0.7
RCASHKTQYKRCGGVDEQEA	1.96 ± 0.58
QYYFARIREFLSIQFIAWYC	0.172 ± 0.32
MSSVNWYANDLLSVLGIGSR	-0.202 ± 1.2
SSGVSNQSIQDIDMRLVYFA	0.06 ± 0.35
YYNFLLIIFNCCKVMS	3.5 ± 0.11
PVQDGSLGCQSHYCSRYCYV	-0.129 ± 0.46
MMSEYSYESFHMLII	-2.05 ± 1.4
IQSPC	-0.171 ± 0.23
TWLYEIHTILMIGGIMRKRG	0.734 ± 0.45
DLFDFFRRRYHFRCFVSSIW	-1.52 ± 2.4
DPAHLSGWLLCSP	0.624 ± 0.45
CILAGGSSVGLNCVGMSTCG	0.438 ± 0.8
RLPWLRAQNANLVLLLVNRR	4.9 ± 0.074

Substance	amyloid nucleation score
QMDMCDYERFYLA	inactive
DRRCLRYSLNCLLFRSIYYN	0.652 ± 1
ALVGMRQITEILVTRDRQWG	0.332 ± 0.27
PISCFTDHMQMFMRSNGRGL	1.16 ± 0.29
MRVHFLE	0.136 ± 0.41
RIGRKDLLFWVPTCRHVLLL	0.416 ± 0.28
FSCSTCNVCNERHPEVFTYD	1.15 ± 0.51
SSIVIRTCKWYGTVCIWELL	-0.339 ± 0.39
VRENLNMLEIHRLGGVKKCV	-1.06 ± 0.95
FRLLRSK	0.644 ± 0.56
SIVIIG	-0.155 ± 0.7
SPCLLF	-0.637 ± 2.1
FVCWRYRCFLWELEEDGLVN	0.627 ± 0.71
SRYLDIEVLSHGMNWMTFQT	-0.005 ± 0.77
LVILVTIVDFMEDLSW	0.74 ± 0.54
QSSSLHKHSFTHVVSQNEGG	0.543 ± 0.26
PRTTMMAINQVLTGTLEASW	-1.01 ± 0.95
PLIITTMFGASVRESFHVVL	1.21 ± 0.4
MCINIKKNMFR	4.74 ± 0.048
TRCKTGSLRLNYVDISQPHV	0.683 ± 0.8
FNYFVLFSLSFSTVFSFNDT	3.37 ± 0.081
YFFFYYYVVTIRKLLHVMGT	-0.854 ± 0.63
GHISIMVHYLFVSTHSSQED	4.46 ± 0.13
KVYTWVPPTMNYRMNLFIVR	0.036 ± 0.19
AYILRWFFTSECRSVQSTSK	-0.105 ± 0.45

Substance	amyloid nucleation score
DFWSYDDVVFGRC	1.3 ± 0.6
TKVDRLALSM	0.658 ± 0.59
HIESNYRSERTDGWYICRSG	1.11 ± 0.2
MIKSPTVKGFRMLCSVRGRD	-0.284 ± 0.44
FAMTNFRYDLPQTHPLPRAV	-0.679 ± 0.54
TWSRNIINFRIFWYTLFQVH	0.005 ± 0.29
TWIVEELFIGDRLALREGFR	0.406 ± 0.63
ESRKYWVNMVIGQDDRLVHP	inactive
SKSGGHASSNG	0.649 ± 0.85
YSKIRNKSRFRNLSASFQRC	inactive
RFLGSWCSIYIGRCVMFDRG	1.13 ± 0.28
TQSRPLETGCPQLERSGLLA	-0.692 ± 0.81
SDFNNTFIYSGEKQVLISTC	-0.147 ± 0.34
VVCQSDILDLSMWTMMGVSM	-0.823 ± 0.66
THMGWVMHYSYETTPHARPG	3.84 ± 0.14
SGLLVITFVNEFLYKNVYPL	1.95 ± 0.25
CSSMQFVACLNSAYGSSTAM	0.027 ± 0.76
DSRCGPM	inactive
IWCNMSFNIRV	4.4 ± 0.088
MGGSCTSEQYCDWANYGDVL	0.125 ± 1.4
SCTCVQHPDGSYAFEIGAAN	0.009 ± 0.96
LSVQTWFGLSACYTGQAKYS	0.171 ± 1.2
MVKRRV	-0.232 ± 1.2
GLRDACFSVLPVYLWVSNGD	0.281 ± 0.55
HVLWGIVLVVIFFW	-0.151 ± 0.29

Substance	amyloid nucleation score
YDTNDGFMTGVQ	-1.56 ± 1.3
FSVKFVSNPFSQLLSARPWW	-0.603 ± 0.34
WDSLDIHQFNKDMWQTSG	-0.909 ± 0.9
FLGLLVPFFNWRDKKRKYSG	0.012 ± 0.79
YDLRNICTSTLMSHVNRFYV	-1.22 ± 0.83
SPEFEEAWDGIKFYCKGANP	-1.09 ± 1.2
VGVYGRYIV	-0.135 ± 0.28
RRDSYFCVWYFWGPDEGCPF	4.46 ± 0.1
RCDSMSCTVYCEGNS	-1.03 ± 1.5
SIYEVEGVTLGLEEHNMKGE	-0.43 ± 0.43
RRSCRRTGGTSASKPSRQAF	0.013 ± 0.45
VEVCRTNWLVEL	1.09 ± 0.57
VYIYRSVPNTAPAPMIEKKD	-0.048 ± 1.2
RDAEWTMIIIIARNQMKAFS	-0.162 ± 0.4
MLVAFAYFFGSHVRHWGFVW	0.224 ± 0.33
ATKSRLVNILTGKDEALTGL	-0.684 ± 0.42
QSPKQILWR	1.11 ± 0.63
SDYTYAFPCMRGWCWYFAVS	-0.691 ± 1.7
VLHCCNAESWLGGWPLGVKN	0.85 ± 0.6
LNHSYMICLFLCNR	6.95 ± 0.073
PSFHICL	-0.489 ± 0.41
KVLILCAT	1.1 ± 0.62
SGIGSMWSQLKDSV	0.136 ± 0.59
GNAWCGLGSKKYCVWLYHYS	0.214 ± 0.28
KKKYTEHISFTALHKLFTRR	0.189 ± 0.92

Substance	amyloid nucleation score
NPWLSNFSCK	0.244 ± 0.47
IKGQGVKVSVVLTAGTCRLW	1.17 ± 0.19
YLAWNM	1.8 ± 0.34
NARYYYQSAIADVI	0.64 ± 0.29
HAMISWDISNVCVYWHMCPW	0.12 ± 0.33
RARDIKWGCLFVCLTCMSTG	3.76 ± 0.067
YILSSLPFRHLLGVNICFTA	-0.364 ± 0.31
SRIGTCGLNSCCLINNIVRD	6.919 ± 0.045
TVIIWDENIWYFGAYAW	-1.53 ± 0.83
IVVFFAPDFCGRQLYDKSKS	4.85 ± 0.11
IICSSM	inactive
NRVHKADHVTYY	inactive
VGLIDANTSSTSWCEGMRNS	-0.321 ± 0.47
HVSVRSLRAVGVLRRRCGNG	inactive
ASSCLNSRFGCQRFLGYLWL	0.33 ± 0.39
FYSCIYYGHMLVELPDMLEL	-0.056 ± 0.35
SLSRNYHPFRAKIFLCLGRN	0.097 ± 0.82
SSGPVFYKLPRLHCVGSHRH	0.603 ± 0.5
SNPRTFNDPSKPRV	0.518 ± 0.35
DMQIWFLYDCI	inactive
RLIENFGPHYRSSPVFDVVV	1.33 ± 0.79
YLRPGCSSVRSNATMGNSYL	0.641 ± 0.45
RKLFYG	-0.017 ± 0.39
RLMNRFMPKSLLLLLPVFVR	inactive
TMICFVVGFFGIQDKVVKCD	0.135 ± 0.84

Substance	amyloid nucleation score
RSVRLMNRVSGWNMWWKDGT	-0.535 ± 1.2
QNYSLNWSITGLVRLLSRIC	-0.73 ± 0.55
QGAGAGKITVGTVGVGGTEL	inactive
RWPRCYYNLGKCTDISLTWS	2.56 ± 0.18
TQPMSF	inactive
HKSIMAYRN	0.677 ± 0.68
SARRRRYGEAGSLGHELQWT	0.675 ± 0.78
SFSEICWVVGHYMNGFSQMR	1.89 ± 0.47
PVFGGNGWLGYGWNWRSHLG	0.383 ± 0.49
LPFNVL	3.09 ± 0.2
IHLCYRDYRMHVARLSAETG	0.02 ± 0.53
KELFLMPDGEPFMG	0.079 ± 0.61
IFFKLVLVWTFLLTYQAYWV	0.174 ± 0.85
CVVFAVKGCAGGWTRFMLDN	-0.268 ± 0.4
GKNWSFLTSYFCWFTLKIH	1.4 ± 0.35
MWSGDDCSFNDFCYVCDFCK	-0.1 ± 0.32
KRLDVKMVLPEVRFRLDVSL	0.732 ± 0.27
VFQVTWGWSCMREVELSSGT	0.343 ± 0.67
YMVYILSVCDLRFLWTRSGG	-0.053 ± 0.49
EGMAARSWDCMYVWG	0.35 ± 0.42
VVGYRRTMGLVEFSLASVSN	-0.806 ± 0.76
